The subject of one experiment is Tie2 receptor. Briefly: Tie2 phosphorylation in HUVEC cells (immunoprecipitation/immunoblot). The format is cell-based, human. How it is done:
As Ang2 induces a change in vascular endothelial cells by binding to a Tie-2 receptor expressed in the vascular endothelial cells to induce the phosphorylation of the receptor and activate it, a test for analyzing an influence of the anti-Ang2 antibody on Tie2 phosphorylation was conducted using a cell-based assay.
For this, HUVEC (ATCC) cells (1×10^6) were cultured in a 100 mm culture dish using EGM-2 (Lonza) media at 37° C. and when they reached 80˜90% confluency, the media were replaced with serum-free media and cultured at 37° C. for 6 to 16 hours. The dish was washed once with PBS and after the replacement with […] sodium orthovanadate (Sigma)-mixed serum free media (Lonza), they were further cultured for 10 min. […]
In addition, referring to the above method, when 60 nM of antibody 10D6 and Ang2 were treated, the phosphorylation level of Tie2 was measured and compared with the case of treating a control antibody (anti-Ang2 antibody (Regeneron) which has MOA of inhibiting binding between Ang2 and Tie2; represented as ‘RG antibody’). After treating with the antibody (10D6 or RG), the blot band density of pTyr and Tie2 was measured using ImageJ software and pTyr/Tie2 ratio was calculated.

Another experiment deals with HUVEC monolayer. In words: In vitro vascular permeability assay (FITC-dextran). Particulars: 200 ng/ml Ang1 alone or 200 ng/ml Ang2 + 1 ug/ml 10D6. The format is cell-based, human. How it is done: To see the cell permeability suppression effects of antibody 10D6, in vitro vascular permeability assay kit (Millipore) was employed. HUVEC (ATCC) cells (5×10^4) were added to a collagen-coated transwell and cultured for 2 days to prepare a confluent monolayer. It was treated with 200 ng/ml of Ang2 or 200 ng/ml of Ang1 (R&D systems) alone, or 200 ng/ml of Ang2 and 1 ug/ml of antibody 10D6, pre-incubated for 30 min. and then, treated with 100 ng/ml of LPS (Lipopolysaccharide; Sigma) or 100 ng/ml TNF-a (R&D systems) to induce the permeability of HUVEC monolayer. LPS or TNF-a weakens binding between HUVEC cells to form a gap therebetween, thereby increasing the migration of materials in the HUVEC monolayer. After 6-hour incubation for the LPS treatment group and 22-hour incubation for the TNF-a group, the upper chamber was treated with FITC-dextran (Millipore) and incubated for 18 min. The fluorescence of FITC-dextran migrated to the lower chamber was measured at 485/535 nm (Ex/Em) setting using an Envision 2104 multilabel Reader (Perkinelmer).

Another experiment addresses T1, Ang2:Tie2 receptor (Homo sapiens, UniProt O15123).
T1 construct: purchased R&D systems (Tie2-Fc)
In words: ELISA for formation of 10D6-Ang2-Tie2 complex. The format is binding. The conditions noted are these: Tie2-Fc coated; 0.25 ug/ml Ang2, 2 ug/ml antibody. How it is done:
A 96-well MaxiSorp™ flat-bottom plate (Nunc) was coated with 4 ug/ml of Tie2-Fc (R&D systems) or BSA (Sigma). Then, the plate was washed five times with 0.05% (v/v) Tween-20-containing PBS (Phosphate Buffer Saline) and blocked with 1% (v/v) BSA (Bovine serum albumin; Sigma)-containing PBS at a room temperature for 2 hours. 0.25ug/ml of Ang2 and 2ug/ml of antibody 10D6 were added to each well of the plate, which was allowed to react at a room temperature for 2 hours and then washed five times with PBST. After that, an anti-mouse IgG antibody (Sigma) conjugated with HRP diluted in 1% (v/v) BSA-containing PBS at a ratio of 1:5,000 (v/v) was added in an amount of 100 ul to each well to react at a room temperature for 1 hour and then, the plate was washed five times with PBST. Lastly, 100 ul (microliter) of TMB substrate (Cell Signaling) was added to each well of the plate to induce color development for 3 min. and then, the reaction was ceased by the addition of 100 ul of Stop solution (Cell Signaling) and OD450 values were measured on a plate reader (Molecular Devices).
On the technique in general: In an ELISA, binding on a coated surface is turned into a signal by an enzyme label.

T1 sequence (O15123 19-496): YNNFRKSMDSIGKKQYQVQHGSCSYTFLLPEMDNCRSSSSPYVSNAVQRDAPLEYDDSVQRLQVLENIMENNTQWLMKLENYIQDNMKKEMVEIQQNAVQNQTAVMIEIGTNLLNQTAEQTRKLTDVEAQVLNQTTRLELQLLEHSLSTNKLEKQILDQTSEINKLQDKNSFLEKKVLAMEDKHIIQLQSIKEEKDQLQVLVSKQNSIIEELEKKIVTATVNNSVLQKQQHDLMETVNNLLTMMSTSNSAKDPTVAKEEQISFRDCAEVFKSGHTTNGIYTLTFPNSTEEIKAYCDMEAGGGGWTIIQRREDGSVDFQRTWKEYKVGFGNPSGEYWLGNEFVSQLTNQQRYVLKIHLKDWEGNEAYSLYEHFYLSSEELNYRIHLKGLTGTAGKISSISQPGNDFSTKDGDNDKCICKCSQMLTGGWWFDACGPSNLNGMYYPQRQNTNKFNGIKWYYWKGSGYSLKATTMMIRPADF
T1 sequence (Q02763 23-745 partner limits assumed): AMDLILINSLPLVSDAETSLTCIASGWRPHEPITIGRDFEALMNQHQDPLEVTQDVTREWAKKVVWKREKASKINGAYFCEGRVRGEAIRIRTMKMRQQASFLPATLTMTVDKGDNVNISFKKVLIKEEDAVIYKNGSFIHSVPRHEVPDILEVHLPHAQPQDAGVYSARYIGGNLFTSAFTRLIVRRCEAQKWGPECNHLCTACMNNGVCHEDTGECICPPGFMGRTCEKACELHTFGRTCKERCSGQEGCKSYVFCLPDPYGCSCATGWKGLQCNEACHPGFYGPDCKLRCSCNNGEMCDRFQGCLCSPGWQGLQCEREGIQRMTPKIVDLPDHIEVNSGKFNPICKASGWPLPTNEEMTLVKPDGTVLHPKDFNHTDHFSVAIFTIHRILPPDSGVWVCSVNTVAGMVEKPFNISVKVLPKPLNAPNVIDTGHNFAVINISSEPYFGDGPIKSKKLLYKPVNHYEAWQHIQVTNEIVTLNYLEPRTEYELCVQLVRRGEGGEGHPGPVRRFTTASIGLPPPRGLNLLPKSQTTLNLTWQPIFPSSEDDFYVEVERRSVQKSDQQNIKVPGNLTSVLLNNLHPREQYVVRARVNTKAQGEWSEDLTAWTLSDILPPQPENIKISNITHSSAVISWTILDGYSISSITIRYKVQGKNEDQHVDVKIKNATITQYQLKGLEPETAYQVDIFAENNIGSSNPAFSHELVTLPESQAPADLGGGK

B1: 10D6: mouse anti-Ang2 monoclonal antibody from hybridoma KCLRF-BP-00295; heavy chain variable region SEQ ID NO: 7, light chain variable region SEQ ID NO: 9 (antibody, V domains shown)
VH: DVQLQESGPGLVKPSQSLSLTCTVTGYSITSDYAWNWIRQFPGNKLEWMGYINYSGNTDYNPSLKSRSSITRDTSKNQFFLQLNSVTTGDTATYYCARGNFEGAMDYWGQGTSVTVSS
VL: SIVMTQTPKFLLVSAGDRVTITCKASQSVSNDVAWYQQKPGQSPKLLIYYASNRYPGVPDRFTGSGYGTDFTFTISTVQAEDLAVYFCQQDYSSPWTFGGGTKLEIK
modifications: Synthetic (Heavy chain variable region of an anti-Ang2 antibody); Synthetic (Light chain variable region of anti-Ang2 antibody)
For B1, the “Tie2 phosphorylation effect, fold higher than control antibody RG” value in the experiment with Tie2 receptor (60 nM antibody and Ang2) is “about 8.6 fold”. The “phosphorylation of Tie2 compared to Ang2 treated alone” value with Tie2 receptor (antibody 600~0.06 nM with 40 nM Ang2, every antibody concentration tested) is given as “more strongly induced”. Also, in the experiment on HUVEC monolayer (100 ng/ml LPS, 6 hour), the “vascular permeability increased by LPS” value is recorded as “decreased to the control level”. Further, the “vascular permeability increased by TNF-a” value in the experiment with HUVEC monolayer (100 ng/ml TNF-a, 22 hour) is given as “decreased to the control level”. For the same molecule, the “formation of complex with Ang2 bound to Tie2” value with Ang2:Tie2 receptor is recorded as “formed a complex”.

Source of the values: US9505841B2, “Use of an anti-Ang2 antibody” (Samsung Electronics Co., Ltd., priority 2013, dated 2016).
